The labels stand for the following.
B1: SNAP91 (parent)
chain: FATASAAVPVSTSKPSSDLLDLQP
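Note: lentivirally expressed fusions sorted by FACS into six bins by GFP to DsRed ratio, PSI derived from sequencing read proportions per bin multiplied by bin number.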

Variants of B1 are the subject of the data set. Description: protein stability index of a GFP-peptide fusion (GPS, HEK-293T) (PSI 1-6); higher = more stable. Conditions: c terminus: a fixed tail appended.
Turning to FATASAAVPVSTSKPSSDNLDLQP, the protein stability index worked out at 4.32.

Regarding FATASAAVPVSTSKPSSDTLDLQP, the protein stability index worked out at 4.22.

For FATASAAVPVSTSKPSSDELDLQP, the protein stability index was determined as 4.59.

With FATASAAVPVSTSKPSSDLLDLQG, the protein stability index was determined as 3.63.

In the case of FATASAAVPVSTSKPSSDLLDLQM, the protein stability index is 3.52.

Regarding FATASAAVPVSTSKPSSDLLDLQQ, the protein stability index was determined as 4.06.

With FATASAAVPVSTSKPSSDLLDLQW, the protein stability index is 2.35.

Regarding FATASAAVAVSTSKPSSDLLDLQP, the protein stability index was 2.96.

As to FATASAAVKVSTSKPSSDLLDLQP, the protein stability index is 3.23.

On to FATASAAVPVSTSKPSSDLLQLQP, for which the protein stability index stood at 3.57.

On to FATASAAVPVSTSKPSSDLLRLQP, for which the protein stability index worked out at 3.28.

As for FATASAAVPVSTSKPSSDLLHLQP, the protein stability index stood at 3.27.

Regarding FATASAAVPVSTSLPSSDLLDLQP, the protein stability index was 3.64.

Take FATASAAVPVSTSWPSSDLLDLQP: the protein stability index worked out at 2.03.

Take FATASAAVPVSTSIPSSDLLDLQP: the protein stability index was 3.5.

Consider FATASAAVPVSTSEPSSDLLDLQP, for which the protein stability index came out at 4.45.

Take FATASAAVPVSTSYPSSDLLDLQP: the protein stability index was 3.21.

Regarding FATASAAVPVSTSAPSSDLLDLQP, the protein stability index came out at 4.16.

For FATASAAVPVSTSSPSSDLLDLQP, the protein stability index was 4.01.

With FATASAAVPVSTSCPSSDLLDLQP, the protein stability index was found to be 3.61.

In the case of FATASAAVPVSTSKPSSWLLDLQP, the protein stability index was found to be 2.13.

As for FATASAAVPVSTSKPSSQLLDLQP, the protein stability index was determined as 3.19.

For the variant FATASAAVPVSTSKPSSLLLDLQP, the protein stability index turned out to be 2.77.

Take FATASAAVPVSTSKPSSELLDLQP: the protein stability index is 3.98.

Consider FATASAAVPVSTKKPSSDLLDLQP, for which the protein stability index is 3.72.

Turning to FATASAAVPVSTDKPSSDLLDLQP, the protein stability index came out at 3.62.

Regarding FATASAAVPVSTFKPSSDLLDLQP, the protein stability index stood at 3.22.

Take FATASAAVPVSTWKPSSDLLDLQP: the protein stability index turned out to be 2.67.

For the variant FATAIAAVPVSTSKPSSDLLDLQP, the protein stability index was 2.8.

For the variant FATAPAAVPVSTSKPSSDLLDLQP, the protein stability index was found to be 3.54.

For FATAVAAVPVSTSKPSSDLLDLQP, the protein stability index worked out at 3.21.

On to FATASAAVPGSTSKPSSDLLDLQP, for which the protein stability index was determined as 3.37.

Regarding FATASAAVPSSTSKPSSDLLDLQP, the protein stability index is 3.97.

For FATASAAVPVSTSKLSSDLLDLQP, the protein stability index was found to be 2.72.

For FATASAAVPVSTSKWSSDLLDLQP, the protein stability index amounted to 2.19.

Turning to FATASAAVPVSTSKGSSDLLDLQP, the protein stability index is 3.97.

Regarding FATASAAVPVSTSKYSSDLLDLQP, the protein stability index stood at 2.99.

With FATASAAVPVSTSKFSSDLLDLQP, the protein stability index was 2.54.

Regarding FATASAAVPVSTSKDSSDLLDLQP, the protein stability index worked out at 4.17.

FATASAAVPVSTSKPSSDLEDLQP: the protein stability index was 4.34.

As to FATASAAVPVSTSKPSSDLDDLQP, the protein stability index came to 4.48.

As to FATASAAVPVSTSKPSSDLYDLQP, the protein stability index was found to be 3.74.

As for FATASAAVPVKTSKPSSDLLDLQP, the protein stability index came to 3.84.

Turning to FATASAAVPVFTSKPSSDLLDLQP, the protein stability index was 1.7.

As for FATASAAVPVSTSKPHSDLLDLQP, the protein stability index worked out at 3.71.

Consider FATASAAVPVSTSKPGSDLLDLQP, for which the protein stability index worked out at 3.57.

With FATASAAVPVSTSKPSPDLLDLQP, the protein stability index was 3.79.

Regarding FATASAAVPVSTSKPSMDLLDLQP, the protein stability index came to 3.56.

Turning to FATASAAFPVSTSKPSSDLLDLQP, the protein stability index was 3.11.

For the variant FATASAAIPVSTSKPSSDLLDLQP, the protein stability index worked out at 3.93.

On to FATASAAYPVSTSKPSSDLLDLQP, for which the protein stability index was 3.09.

As for FATASAAKPVSTSKPSSDLLDLQP, the protein stability index was determined as 4.13.

Take FATASAARPVSTSKPSSDLLDLQP: the protein stability index came out at 3.79.

As for FATASAAPPVSTSKPSSDLLDLQP, the protein stability index came out at 4.07.

Consider FATTSAAVPVSTSKPSSDLLDLQP, for which the protein stability index is 3.72.

On to FATPSAAVPVSTSKPSSDLLDLQP, for which the protein stability index is 4.19.

For FATYSAAVPVSTSKPSSDLLDLQP, the protein stability index turned out to be 3.73.

For FATNSAAVPVSTSKPSSDLLDLQP, the protein stability index came to 3.81.

Turning to FATASEAVPVSTSKPSSDLLDLQP, the protein stability index is 4.31.

FATASHAVPVSTSKPSSDLLDLQP: the protein stability index was 3.19.

As for FATASFAVPVSTSKPSSDLLDLQP, the protein stability index was 2.31.

As for FLTASAAVPVSTSKPSSDLLDLQP, the protein stability index was 3.75.

As for FCTASAAVPVSTSKPSSDLLDLQP, the protein stability index is 3.09.

In the case of FPTASAAVPVSTSKPSSDLLDLQP, the protein stability index amounted to 4.27.

FKTASAAVPVSTSKPSSDLLDLQP: the protein stability index amounted to 3.99.

Turning to FITASAAVPVSTSKPSSDLLDLQP, the protein stability index worked out at 2.2.

Regarding FATASAAVPVSQSKPSSDLLDLQP, the protein stability index worked out at 3.97.

Consider FATASAAVPVSDSKPSSDLLDLQP, for which the protein stability index turned out to be 4.04.

Consider FATASAAVPVSVSKPSSDLLDLQP, for which the protein stability index worked out at 3.73.

In the case of FATASAAVPVSPSKPSSDLLDLQP, the protein stability index was found to be 2.1.

FAHASAAVPVSTSKPSSDLLDLQP: the protein stability index amounted to 3.71.

As to FAMASAAVPVSTSKPSSDLLDLQP, the protein stability index came out at 3.16.

With FAGASAAVPVSTSKPSSDLLDLQP, the protein stability index is 2.65.

Take FAAASAAVPVSTSKPSSDLLDLQP: the protein stability index was determined as 2.8.

Regarding FAQASAAVPVSTSKPSSDLLDLQP, the protein stability index is 4.15.

As to FAKASAAVPVSTSKPSSDLLDLQP, the protein stability index is 3.22.

Take FAFASAAVPVSTSKPSSDLLDLQP: the protein stability index turned out to be 2.15.

Regarding IATASAAVPVSTSKPSSDLLDLQP, the protein stability index is 4.5.

For NATASAAVPVSTSKPSSDLLDLQP, the protein stability index is 4.53.

For FATASASVPVSTSKPSSDLLDLQP, the protein stability index is 3.55.

For the variant FATASAPVPVSTSKPSSDLLDLQP, the protein stability index worked out at 3.66.

Take FATASAFVPVSTSKPSSDLLDLQP: the protein stability index came to 3.89.

As to FATASAMVPVSTSKPSSDLLDLQP, the protein stability index amounted to 4.01.

With FATASATVPVSTSKPSSDLLDLQP, the protein stability index was 3.24.

As for FATASAAVPVSTSKPSSDLLDLAP, the protein stability index turned out to be 3.5.

As for FATASAAVPVSTSKPSSDLLDLRP, the protein stability index was found to be 3.34.

In the case of FATASAAVPVSTSKPSSDLLDLKP, the protein stability index was 3.42.

Take FATASAAVPVSTSKPSSDLLDLYP: the protein stability index came to 2.8.

Take FATASAAVPVSTSKPSSDLLDLEP: the protein stability index worked out at 4.46.

As for FATASAAVPVSTSKPSSDLLDLWP, the protein stability index turned out to be 2.69.

In the case of FATASAAVPVSTSKPSSDLLDSQP, the protein stability index was 4.16.

In the case of FATASAAVPVSTSKPSSDLLDIQP, the protein stability index was found to be 3.71.

With FATASAAVPVSTSKPSSDLLDHQP, the protein stability index is 4.07.

As to FATASAAVPVSTSKPSSDLLDTQP, the protein stability index turned out to be 4.3.

Values taken from the supplement of paper PMC10567573.
